Data set [1] addresses T1, generic peptide substrate RRRLSFAEPG
T1 chain: RRRLSFAEPG

For data set [2], the target named is T2, standard peptide substrate KEAKEKRQEQIAKRRRLSSLRASTSKSGGSQK
T2 chain: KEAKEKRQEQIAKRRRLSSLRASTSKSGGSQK

The target of data set [3] is T3, standard peptide substrate GRPRTSSFAEG
T3 chain: GRPRTSSFAEG

Data set [4] addresses T4, generic peptide substrate KKLNRTLSFAEPG
T4 chain: KKLNRTLSFAEPG

Data set [5] addresses T5, generic peptide substrate RARTLSFAEPG
T5 chain: RARTLSFAEPG

The target in data set [6] is T6, standard peptide substrate KKLNRTLSVA
T6 chain: KKLNRTLSVA

Data set [7] has as its target T7, standard peptide substrate HMRSAMSGLHLVKRR
T7 chain: HMRSAMSGLHLVKRR

Data set [8] deals with T8, standard peptide substrate KKKVSRSGLYRSPSMPENLNRPR
T8 chain: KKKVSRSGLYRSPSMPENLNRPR

Data set [9] has as its target T9, standard peptide substrate LRRASLG.
T9 chain: LRRASLG

Data set [10] has as its target T10, standard peptide substrate KKLRRTLSVA
T10 chain: KKLRRTLSVA

B1: rat Rho-dependent protein kinase ROCKII[1-543] (protein)
chain: MSRPPPTGKMPGAPEAAAGDGAGAGRQRKLEALIRDPRSPINVESLLDGLNSLVLDLDFPALRKNKNIDNFLNRYEKIVKKIRGLQMKAEDYDVVKVIGRGAFGEVQLVRHKASQKVYAMKLLSKFEMIKRSDSAFFWEERDIMAFANSPWVVQLFCAFQDDRYLYMVMEYMPGGDLVNLMSNYDVPEKWAKFYTAEVVLALDAIHSMGLIHRDVKPDNMLLDKHGHLKLADFGTCMKMDETGMVHCDTAVGTPDYISPEVLKSQGGDGYYGRECDWWSVGVFLFEMLVGDTPFYADSLVGTYSKIMDHKNSLCFPEDTEISKHAKNLICAFLTDREVRLGRNGVEEIKSASFFKNDQWNWDNIRETAAPVVPELSSDIDSSNFDDIEDDKGDVETFPIPKAFVGNQLPFIGFTYFRENLLLSDSPPCRENDAIQTRKSEESQEIQKKLYALEEHLSSEVQAKEELEQKCKSINTRLEKTAKELEEEITFRKNVESTLRQLEREKALLQHKNAEYQRKADHEADKKRNLENDVNSLKDQLEDL
As for B1, the Km – broadly, the concentration of substrate that gives half-maximal velocity – was above 100 µM in data set [1] and 5 µM in data set [2].

B2: protein kinase B alpha (PKBα) (protein)
chain: MDFRSGSPSDNSGAEEMEVSLAKPKHRVTMNEFEYLKLLGKGTFGKVILVKEKATGRYYAMKILKKEVIVAKDEVAHTLTENRVLQNSRHPFLTALKYSFQTHDRLCFVMEYANGGELFFHLSRERVFSEDRARFYGAEIVSALDYLHSEKNVVYRDLKLENLMLDKDGHIKITDFGLCKEGIKDGATMKTFCGTPEYLAPEVLEDNDYGRAVDWWGLGVVMYEMMCGRLPFYNQDHEKLFELILMEEIRFPRTLGPEAKSLLSGLLKKDPKQRLGGGSEDAKEIMQHRFFAGIVWQHVYEKKLSPPFKPQVTSETDTRYFDEEFTAQMITITPPDQDDSMECVDSERRPHFPQFSYSASGTA
For B2, the Km in [3] amounted to 4 µM; in data set [4], 2 µM.

B3: MAPKAP-K3 (protein)
chain: MDGETAEEQGGPVPPPVAPGGPGLGGAPGGRREPKKYAVTDDYQLSKQVLGLGVNGKVLECFHRRTGQKCALKLLYDSPKARQEVDHHWQASGGPHIVCILDVYENMHHGKRCLLIIMECMEGGELFSRIQERGDQAFTEREAAEIMRDIGTAIQFLHSHNIAHRDVKPENLLYTSKEKDAVLKLTDFGFAKETTQNALQTPCYTPYYVAPEVLGPEKYDKSCDMWSLGVIMYILLCGFPPFYSNTGQAISPGMKRRIRLGQYGFPNPEWSEVSEDAKQLIRLLLKTDPTERLTITQFMNHPWINQSMVVPQTPLHTARVLQEDKDHWDEVKEEMTSALATMRVDYDQVKIKDLKTSNNRLLNKRRKKQAGSSSASQGCNNQ
For B3, the Km in data set [5] came out at 30 µM; in data set [6] it was 18 µM.

B4: AMP-activated protein kinase (AMPK) (protein)
chain: MAEKQKHDGRVKIGHYVLGDTLGVGTFGKVKIGEHQLTGHKVAVKILNRQKIRSLDVVGKIKREIQNLKLFRHPHIIKLYQVISTPTDFFMVMEYVSGGELFDYICKHGRVEEVEARRLFQQILSAVDYCHRHMVVHRDLKPENVLLDAQMNAKIADFGLSNMMSDGEFLRTSCGSPNYAAPEVISGRLYAGPEVDIWSCGVILYALLCGTLPFDDEHVPTLFKKIRGGVFYIPEYLNRSIATLLMHMLQVDPLKRATIKDIREHEWFKQDLPSYLFPEDPSYDANVIDDEAVKEVCEKFECTESEVMNSLYSGDPQDQLAVAYHLIIDNRRIMNQASEFYLASSPPTGSFMDDMAMHIPPGLKPHPERMPPLIADSPKARCPLDALNTTKPKSLAVKKAKWHLGIRSQSKPYDIMAEVYRAMKQLDFEWKVVNAYHLRVRRKNPVTGNYVKMSLQLYLVDNRSYLLDFKSIDDEVVEQRSGSSTPQRSCSAAGLHRPRSSVDSSTAENHSLSGSLTGSLTGSTLSSASPRLGSHTMDFFEMCASLITALAR
B4: the Km in data set [7] amounted to 80 µM; in [5], 75 µM.

B5: cGMP-dependent protein kinase (PKG) (protein)
chain: SELEEDFAKILMLKEERIKELEKRLSEKEEEIQELKRKLHKCQSVLPVPSTHIGPRTTRAQGISAEPQTYRSFHDLRQAFRKFTKSERSKDLIKEAILDNDFMKNLELSQIQEIVDCMYPVEYGKDSCIIKEGDVGSLVYVMEDGKVEVTKEGVKLCTMGPGKVFGELAILYNCTRTATVKTLVNVKLWAIDRQCFQTIMMRTGLIKHTEYMEFLKSVPTFQSLPEEILSKLADVLEETHYENGEYIIRQGARGDTFFIISKGKVNVTREDSPNEDPVFLRTLGKGDWFGEKALQGEDVRTANVIAAEAVTCLVIDRDSFKHLIGGLDDVSNKAYEDAEAKAKYEAEAAFFANLKLSDFNIIDTLGVGGFGRVELVQLKSEESKTFAMKILKKRHIVDTRQQEHIRSEKQIMQGAHSDFIVRLYRTFKDSKYLYMLMEACLGGELWTILRDRGSFEDSTTRFYTACVVEAFAYLHSKGIIYRDLKPENLILDHRGYAKLVDFGFAKKIGFGKKTWTFCGTPEYVAPEIILNKGHDISADYWSLGILMYELLTGSPPFSGPDPMKTYNIILRGIDMIEFPKKIAKNAANLIKKLCRDNPSERLGNLKNGVKDIQKHKWFEGFNWEGLRKGTLTPPIIPSVASPTDTSNFDSFPEDNDEPPPDDNSGWDIDF
On to B5, for which the Km is 50 µM in data set [1] and 5 µM in data set [2].

B6: Checkpoint Kinase 1 (CHK1) (protein)
chain: MAVPFVEDWDLVQTLGEGAYGEVQLAVNRVTEEAVAVKIVDMKRAVDCPENIKKEICINKMLNHENVVKFYGHRREGNIQYLFLEYCSGGELFDRIEPDIGMPEPDAQRFFHQLMAGVVYLHGIGITHRDIKPENLLLDERDNLKISDFGLATVFRYNNRERLLNKMCGTLPYVAPELLKRREFHAEPVDVWSCGIVLTAMLAGELPWDQPSDSCQEYSDWKEKKTYLNPWKKIDSAPLALLHKILVENPSARITIPDIKKDRWYNKPLKKGAKRPRVTSGGVSESPSGFSKHIQSNLDFSPVNSASSEENVKYSSSQPEPRTGLSLWDTSPSYIDKLVQGISFSQPTCPDHMLLNSQLLGTPGSSQNPWQRLVKRMTRFFTKLDADKSYQCLKETCEKLGYQWKKSCMNQVTISTTDRRNNKLIFKVNLLEMDDKILVDFRLSKGDGLEFKRHFLKIKGKLIDIVSSQKIWLPAT
As to B6, the Km in [8] and in data set [5] was 5 µM each time.

B7: p70 ribosomal S6 kinase 1 (S6K1[T412E], lacking the C-terminal 104 residues) (protein)
chain: MRRRRRRDGFYPAPDFRDREAEDMAGVFDIDLDQPEDAGSEDELEEGGQLNESMDHGGVGPYELGMEHCEKFEISETSVNRGPEKIRPECFELLRVLGKGGYGKVFQVRKVTGANTGKIFAMKVLKKAMIVRNAKDTAHTKAERNILEEVKHPFIVDLIYAFQTGGKLYLILEYLSGGELFMQLEREGIFMEDTACFYLAEISMALGHLHQKGIIYRDLKPENIMLNHQGHVKLTDFGLCKESIHDGTVTHTFCGTIEYMAPEILMRSGHNRAVDWWSLGALMYDMLTGAPPFTGENRKKTIDKILKCKLNLPPYLTQEARDLLKKLLKRNAASRLGAGPGDAGEVQAHPFFRHINWEELLARKVEPPFKPLLQSEEDVSQFDSKFTRQTPVDSPDDSTLSESANQVFLGFEYVAPSVLES
With B7, the Km turned out to be 6 µM in data set [4] and 8 µM in data set [9].

B8: p38 regulated/activated kinase (PRAK) (protein)
chain: MSEESDMDKAIKETSILEEYSINWTQKLGAGISGPVRVCVKKSTQERFALKILLDRPKARNEVRLHMMCATHPNIVQIIEVFANSVQFPHESSPRARLLIVMEMMEGGELFHRISQHRHFTEKQASQVTKQIALALRHCHLLNIAHRDLKPENLLFKDNSLDAPVKLCDFGFAKIDQGDLMTPQFTPYYVAPQVLEAQRRHQKEKSGIIPTSPTPYTYNKSCDLWSLGVIIYVMLCGYPPFYSKHHSRTIPKDMRRKIMTGSFEFPEEEWSQISEMAKDVVRKLLKVKPEERLTIEGVLDHPWLNSTEALDNVLPSAQLMMDKAVVAGIQQAHAEQLANMRIQDLKVSLKPLHSVNNPILRKRKLLGTKPKDSVYIHDHENGAEDSNVALEKLRDVIAQCILPQAGKGENEDEKLNEVMQEAWKYNRECKLLRDTLQSFSWNGRGFTDKVDRLKLAEIVKQVIEEQTTSHESQ
As for B8, the Km in [5] was 40 µM; in [10], above 100 µM.

B9: serum and glucocorticoid-induced kinase 1 (SGK1[S422D] and lacking the N-terminal 59 residues) (protein)
chain: ISQPQEPELMNANPSPPPSPSQQINLGPSSNPHAKPSDFHFLKVIGKGSFGKVLLARHKAEEVFYAVKVLQKKAILKKKEEKHIMSERNVLLKNVKHPFLVGLHFSFQTADKLYFVLDYINGGELFYHLQRERCFLEPRARFYAAEIASALGYLHSLNIVYRDLKPENILLDSQGHIVLTDFGLCKENIEHNSTTSTFCGTPEYLAPEVLHKQPYDRTVDWWCLGAVLYEMLYGLPPFYSRNTAEMYDNILNKPLQLKPNITNSARHLLEGLLQKDRTKRLGAKDDFMEIKSHVFFSLINWDDLINKKITPPFNPNVSGPNDLRHFDPEFTEEPVPNSIGKSPDSVLVTASVKEAAEAFLGFDYAPPTDSFL
As for B9, the Km in data set [3] and in data set [4] was 4 µM each time.

These data come from patent publication US7727950.
